Results published in patent publication US20050069907A1, “Methods for using double-mutant RNA polymerases with reduced discrimination between non-canonical and canonical nucleoside triphosphates” (priority 2002, published 2005).

Tests used:
Format in all cases: biochemical
poly(rC) = assay: Activity on an RNA (poly(rC)) template
Procedure: T7 RNAP as a reverse transcriptase or RNA replicase which initiates de novo: It has been reported that T7 RNAP can use both RNA and DNA templates (Konarska and Sharp, 1989). Therefore, it was determined if the Y639F mutant would use dNTPs when transcribing an RNA template (poly(rC), see Table IV).
Numbers give mean and range from 3 experiments. Template was at 0.2 mg/ml, polymerases at 10^−6 M. Labeling NTPs were α-P^32 rGTP, α-P^32 dGTP.

poly(dI)·poly(dC) = assay: Relative activity on poly(dI)·poly(dC)
Procedure: (§1) Transcription reactions: Transcription reactions were carried out in 40 mM Tris-Cl pH 8.0, 15 mM MgCl2, and 5 mM DTT or 20 mM Manganese Citrate pH 8.0, 5 mM DTT at 37° C. Template, polymerase, and NTP concentrations were as indicated in the legends to the figures and tables. Relative activity determinations were made by taking 4 μl aliquots of reactions at 5, 10, and 20 minute time points and spotting on to DE81 filter paper. Unincorporated nucleotides were separated from incorporated nucleotides by washing the filter paper with 0.5 M KH2PO4 pH 7.0 and retained radioactive nucleotide was quantitated with a Molecular Dynamics phosphorimager. To evaluate rNTP/dNTP selectivity, reactions were run with 4 rNTPs and pT75 as template and α-P^32 rNTPs or α-P^32 dNTPs were used to label the transcripts. The relative rate of incorporation of an rNTP vs. its cognate dNTP was determined from the relative percentages of labeled rNTP vs. dNTP incorporated into DE81 retainable RNA at 5, 10, and 20 minute time points. Apparent miscoding frequencies were determined similarly, though in this instance the template was a single-stranded homopolymer and the reaction contained the complementary unlabeled rNTP, and complementary α-P^32 rNTP or one of the 3 non-complementary α-P^32 rNTPs. The relative percentages of labeled complementary vs. non-complementary rNTPs incorporated at 5, 10 and 20 minute time points gave an apparent miscoding rate. The rNTP/dNTP selectivity assay was used to test the following T7 RNAP mutants for effects on substrate discrimination: D537S, D537E, S539A, R5S1S, D552S, R627S, K631S, L637A, Y639S, Y639F, Y639A, G640A, F644A, G645A, Q649S, […], H811S, H811A, D812A, D812E, D812S, D812N, D879E+ΔF882+ΔA883, D879E+A881T+ΔA883, D879E+F884+A885, D879E+F882Y, D879E+ΔA883, D879E+F882W, D879E.
DNA and RNA synthesis on homopolymeric templates: T7 RNAP will synthesize poly(rG) RNAs on poly(dC) templates (Bonner, et al., 1994; Ikeda and Richardson 1987). The activity of the W.T. and mutant polymerases were measured on poly(dI)-poly(dC) with rGTP, dGTP, dGTP+rGMP (see, Table III).
Numbers give mean and range from 3 experiments. Templates were at 0.2 mg/ml, polymerases at 10^-8 M. Labeling NTPs were α-P^32 rGTP, α-P^32 dGTP, α-P^32 rATP, α-P^32 dATP, as appropriate. rNTPs or rNMPs at 0.5 mM; dNTPs at 1 mM.

supercoiled pT75 = assay: Relative transcription activity with different rNTP/dNTP mixes
Procedure: as §1
Relative activity of the W.T. and Y639F polymerases with different NTP combinations: The relative activities of the Y639F and W.T. polymerases with supercoiled pT75 as a template and various combinations of rNTPs/dNTPs were measured in both Mg^2+ and Mn^2+ buffers (see, Table II,).

[1] = .5 mM GTP, mean and range from 3 experiments
[2] = rGTP, mean and range from 3 experiments
[3] = 1 rNTP, dCTP, dATP, dGTP, with rGMP, Mg^2+
[4] = 1 rNTP, dCTP, dATP, dGTP, with rGMP, Mn^2+
[5] = 1 rNTP, dCTP, dATP, dTTP, Mg^2+
[6] = 1 rNTP, dCTP, dATP, dTTP, Mn^2+
[7] = 1 rNTP, dCTP, dATP, dUTP, Mg^2+
[8] = 1 rNTP, dCTP, dATP, dUTP, Mn^2+
[9] = 1 rNTP, dTTP, dATP, dGTP, with rGMP, Mg^2+
[10] = 1 rNTP, dTTP, dATP, dGTP, with rGMP, Mn^2+
[11] = 1 rNTP, dTTP, dCTP, dGTP, with rGMP, Mg^2+
[12] = 1 rNTP, dTTP, dCTP, dGTP, with rGMP, Mn^2+
[13] = 2 rNTPs, dATP, dGTP, rGMP, Mg^2+
[14] = 2 rNTPs, dATP, dGTP, rGMP, Mn^2+
[15] = 2 rNTPs, dCTP, dGTP, rGMP, Mg^2+
[16] = 2 rNTPs, dCTP, dGTP, rGMP, Mn^2+
[17] = 2 rNTPs, dTTP, dGTP, rGMP, Mg^2+
[18] = 2 rNTPs, dTTP, dGTP, rGMP, Mn^2+

W.T.: wild-type T7 RNA polymerase [reference compound]
Activity on poly(rC) template (poly(rC); 1 mM GTP): <.5 | Activity on poly(rC) template (poly(rC); 1 mM dGTP + .5 mM GMP): <.5 | Activity on poly(rC) template (poly(rC); [1]): 1000 | Activity on poly(rC) (poly(rC); dGTP or dGTP+rGMP): not measurably active | Relative activity on poly(dI)·poly(dC) (poly(dI)·poly(dC); dGTP): 7.4 (5.4-12.5) | Relative activity on poly(dI)·poly(dC) (poly(dI)·poly(dC); dGTP + rGMP): 25 (20-27) | Relative activity on poly(dI)·poly(dC) (poly(dI)·poly(dC); [2]): 1000 | Relative activity (supercoiled pT75; [3]): <.5 | Relative activity (supercoiled pT75; [4]): <.5 | Relative activity (supercoiled pT75; [5]): <.5 | Relative activity (supercoiled pT75; [6]): <.5 | Relative activity (supercoiled pT75; [7]): <.5 | Relative activity (supercoiled pT75; [8]): <.5 | Relative activity (supercoiled pT75; [9]): <.5 | Relative activity (supercoiled pT75; [10]): <.5 | Relative activity (supercoiled pT75; [11]): <.5 | Relative activity (supercoiled pT75; [12]): <.5 | Relative activity (supercoiled pT75; [13]): <.5 | Relative activity (supercoiled pT75; [14]): <.5 | Relative activity (supercoiled pT75; 2 rNTPs, dATP, dTTP, Mg^2+): <.5 | Relative activity (supercoiled pT75; 2 rNTPs, dATP, dTTP, Mn^2+): <.5 | Relative activity (supercoiled pT75; 2 rNTPs, dCTP, dATP, Mg^2+): <.5 | Relative activity (supercoiled pT75; 2 rNTPs, dCTP, dATP, Mn^2+): .5-.9 | Relative activity (supercoiled pT75; [15]): <.5 | Relative activity (supercoiled pT75; [16]): <.5 | Relative activity (supercoiled pT75; 2 rNTPs, dCTP, dTTP, Mg^2+): 2 | Relative activity (supercoiled pT75; 2 rNTPs, dCTP, dTTP, Mn^2+): 5-7 | Relative activity (supercoiled pT75; 2 rNTPs, dCTP, dUTP, Mg^2+): 2-6 | Relative activity (supercoiled pT75; 2 rNTPs, dCTP, dUTP, Mn^2+): 3 | Relative activity (supercoiled pT75; [17]): <.5 | Relative activity (supercoiled pT75; [18]): <.5 | Relative activity (supercoiled pT75; 3 rNTPs, dATP, Mg^2+): 1-2 | Relative activity (supercoiled pT75; 3 rNTPs, dATP, Mn^2+): 1-2 | Relative activity (supercoiled pT75; 3 rNTPs, dCTP, Mg^2+): 4-9 | Relative activity (supercoiled pT75; 3 rNTPs, dCTP, Mn^2+): 15 | Relative activity (supercoiled pT75; 3 rNTPs, dGTP, rGMP, Mg^2+): <.5 | Relative activity (supercoiled pT75; 3 rNTPs, dGTP, rGMP, Mn^2+): 1-3 | Relative activity (supercoiled pT75; 3 rNTPs, dGTP, Mg^2+): <.5 | Relative activity (supercoiled pT75; 3 rNTPs, dGTP, Mn^2+): .5-2 | Relative activity (supercoiled pT75; 3 rNTPs, dTTP, Mg^2+): 11-13 | Relative activity (supercoiled pT75; 3 rNTPs, dTTP, Mn^2+): 7-8 | Relative activity (supercoiled pT75; 3 rNTPs, dUTP, Mg^2+): 9-11 | Relative activity (supercoiled pT75; 3 rNTPs, dUTP, Mn^2+): 10-11 | Relative activity (supercoiled pT75; 4 dNTPs, rGMP, Mg^2+): <.5 | Relative activity (supercoiled pT75; 4 dNTPs, rGMP, Mn^2+): <.5 | Relative activity (supercoiled pT75; 4 rNTPs, Mg^2+): 200 | Relative activity (supercoiled pT75; 4 rNTPs, Mn^2+): 21-23

Y639F: T7 RNAP with wild-type tyrosine at position 639 substituted by phenylalanine
Activity on poly(rC) template (poly(rC); 1 mM GTP): 62 (48-80) | Activity on poly(rC) template (poly(rC); 1 mM dGTP + .5 mM GMP): 116 (90-148) | Activity on poly(rC) template (poly(rC); [1]): 505 (358-733) | Reduction of activity on poly(rC) (poly(rC); with dGTP): ~8 fold | Reduction of activity on poly(rC) (poly(rC); with dGTP+rGMP): ~4 fold | Relative activity on poly(dI)·poly(dC) (poly(dI)·poly(dC); dGTP): 964 (684-1257) | Relative activity on poly(dI)·poly(dC) (poly(dI)·poly(dC); dGTP + rGMP): 1070 (816-1457) | Relative activity on poly(dI)·poly(dC) (poly(dI)·poly(dC); [2]): 1000 | Relative activity (supercoiled pT75; [3]): 3-5 | Relative activity (supercoiled pT75; [4]): 1-2 | Relative activity (supercoiled pT75; [5]): 12-14 | Relative activity (supercoiled pT75; [6]): .7-2 | Relative activity (supercoiled pT75; [7]): 10-11 | Relative activity (supercoiled pT75; [8]): 2-3 | Relative activity (supercoiled pT75; [9]): 11 | Relative activity (supercoiled pT75; [10]): 1.5-2 | Relative activity (supercoiled pT75; [11]): 10-13 | Relative activity (supercoiled pT75; [12]): 2-4 | Relative activity (supercoiled pT75; [13]): 5-6 | Relative activity (supercoiled pT75; [14]): 1-1.5 | Relative activity (supercoiled pT75; 2 rNTPs, dATP, dTTP, Mg^2+): 11-14 | Relative activity (supercoiled pT75; 2 rNTPs, dATP, dTTP, Mn^2+): 3-4 | Relative activity (supercoiled pT75; 2 rNTPs, dCTP, dATP, Mg^2+): 20-29 | Relative activity (supercoiled pT75; 2 rNTPs, dCTP, dATP, Mn^2+): 4-7 | Relative activity (supercoiled pT75; [15]): 11-14 | Relative activity (supercoiled pT75; [16]): 2-5 | Relative activity (supercoiled pT75; 2 rNTPs, dCTP, dTTP, Mg^2+): 30 | Relative activity (supercoiled pT75; 2 rNTPs, dCTP, dTTP, Mn^2+): 5 | Relative activity (supercoiled pT75; 2 rNTPs, dCTP, dUTP, Mg^2+): 27-29 | Relative activity (supercoiled pT75; 2 rNTPs, dCTP, dUTP, Mn^2+): 4-7 | Relative activity (supercoiled pT75; [17]): 13-15 | Relative activity (supercoiled pT75; [18]): 3-6 | Relative activity (supercoiled pT75; 3 rNTPs, dATP, Mg^2+): 73 | Relative activity (supercoiled pT75; 3 rNTPs, dATP, Mn^2+): 2-3 | Relative activity (supercoiled pT75; 3 rNTPs, dCTP, Mg^2+): 86 | Relative activity (supercoiled pT75; 3 rNTPs, dCTP, Mn^2+): 7-11 | Relative activity (supercoiled pT75; 3 rNTPs, dGTP, rGMP, Mg^2+): 95-109 | Relative activity (supercoiled pT75; 3 rNTPs, dGTP, rGMP, Mn^2+): 1.4-2.5 | Relative activity (supercoiled pT75; 3 rNTPs, dGTP, Mg^2+): 43-63 | Relative activity (supercoiled pT75; 3 rNTPs, dGTP, Mn^2+): 3 | Relative activity (supercoiled pT75; 3 rNTPs, dTTP, Mg^2+): 90-96 | Relative activity (supercoiled pT75; 3 rNTPs, dTTP, Mn^2+): 4 | Relative activity (supercoiled pT75; 3 rNTPs, dUTP, Mg^2+): 82-91 | Relative activity (supercoiled pT75; 3 rNTPs, dUTP, Mn^2+): 7-8 | Relative activity (supercoiled pT75; 4 dNTPs, rGMP, Mg^2+): <.5 | Relative activity (supercoiled pT75; 4 dNTPs, rGMP, Mn^2+): .5 | Relative activity (supercoiled pT75; 4 rNTPs, Mg^2+): 200 | Relative activity (supercoiled pT75; 4 rNTPs, Mn^2+): 9
